For orientation: Km means the substrate concentration at which the rate is half of its maximum. The kcat is the maximal rate divided by the concentration of active sites.

Numbering of substitutions follows the chain as printed. Numbers in names are those of the source.

B1: T172R/G173Q/L196C/I301C/V116K/A51V: cocaine esterase mutant of SEQ ID No. 1 with the named mutations (protein, UniProt Q9L9D7 1-574, looked up, variant T172R G173Q L196C I301C V116K A51V)
Cocaine esterase: MVDGNYSVASNVMVPMRDGVRLAVDLYRPDADGPVPVLLVRNPYDKFDVFVWSTQSTNWLEFVRDGYAVVIQDTRGLFASEGEFVPHVDDEADAEDTLSWILEQAWCDGNVGMFGKSYLGVTQWQAAVSGVGGLKAIAPSMASADLYRAPWYGPGGALSVEALLGWSALIGRQLITSRSDARPEDAADFVQLAAICNDVAGAASVTPLAEQPLLGRLIPWVIDQVVDHPDNDESWQSISLFERLGGLATPALITAGWYDGFVGESLRTFVAVKDNADARLVVGPWSHSNLTGRNADRKFGCAATYPIQEATTMHKAFFDRHLRGETDALAGVPKVRLFVMGIDEWRDETDWPLPDTAYTPFYLGGSGAANTSTGGGTLSTSISGTESADTYLYDPADPVPSLGGTLLFHNGDNGPADQRPIHDRDDVLCYSTEVLTDPVEVTGTVSARLFVSSSAVDTDFTAKLVDVFPDGRAIALCDGIVRMRYRETLVNPTLIEAGEIYEVAIDMLATSNVFLPGHRIMVQVSSSNFPKYDRNSNTGGVIAREQLEEMCTAVNRIHRGPEHPSHIVLPIIKR
B2: T172R/G173Q/L196C/I301C/V116K/A51L: cocaine esterase mutant of SEQ ID No. 1 with the named mutations (protein, UniProt Q9L9D7 1-574, looked up, variant T172R G173Q L196C I301C V116K A51L)
Cocaine esterase: B1 Cocaine esterase with V51L
B3: V116K: cocaine esterase mutant, 116th valine mutated into lysine (protein, listed as Rhodococcus sp.)
chain: B1 Cocaine esterase with V51A
B4: Wildtype WT: wildtype bacterial cocaine esterase, amino acid sequence SEQ ID No. 1 (protein, listed as Rhodococcus sp.)
chain: B1 Cocaine esterase with V51A, K116V
B5: T172R/G173Q/L196C/I301C/V116K/A51Y: cocaine esterase mutant of SEQ ID No. 1 with the named mutations (protein, UniProt Q9L9D7 1-574, looked up, variant T172R G173Q L196C I301C V116K A51Y)
Cocaine esterase: B1 Cocaine esterase with V51Y
B6: T172R/G173Q/L196C/I301C/V116K/A51W: cocaine esterase mutant of SEQ ID No. 1 with the named mutations (protein, UniProt Q9L9D7 1-574, looked up, variant T172R G173Q L196C I301C V116K A51W)
Cocaine esterase: B1 Cocaine esterase with V51W
B7: T172R/G173Q/L196C/I301C: cocaine esterase mutant with the named mutations, comparator without V116K (protein, listed as Rhodococcus sp.)
chain: B1 Cocaine esterase with V51A, K116V
B8: T172R/G173Q: CocE T172R/G173Q mutant that completed the clinical test II phase of cocaine detoxification (protein, listed as Rhodococcus sp.)
chain: B1 Cocaine esterase with V51A, K116V
B9: T172R/G173Q/V116K: cocaine esterase mutant of SEQ ID No. 1 with the named mutations (protein, UniProt Q9L9D7 1-574, looked up, variant T172R G173Q V116K)
Cocaine esterase: B1 Cocaine esterase with V51A, C196L, C301I
B10: T172R/G173Q/L196C/I301C/V116K/A51F: cocaine esterase mutant of SEQ ID No. 1 with the named mutations (protein, UniProt Q9L9D7 1-574, looked up, variant T172R G173Q L196C I301C V116K A51F)
Cocaine esterase: B1 Cocaine esterase with V51F
B11: T172R/G173Q/L196C/I301C/V116K: cocaine esterase mutant of SEQ ID No. 1 with the named mutations (protein, UniProt Q9L9D7 1-574, looked up, variant T172R G173Q L196C I301C V116K)
Cocaine esterase: B1 Cocaine esterase with V51A

A short description of the first data set: High-activity CocE mutant accelerated BZE metabolism in vivo (rat blood BZE and BA by HPLC). As to conditions: 0.2 or 1 mg/kg mutant i.v., then 2 mg/kg BZE i.v.; FIGS. 3A and 3B. On the set-up: species or system SD rats. How it is done:
Experimental male SD rats (200 g/rat) purchased from Laboratory Animal Center of Zhejiang Academy of Medical Sciences were raised in a constant-temperature and constant-humidity environment. The feeding and experimental application was carried out by following Guide for the Care and Use of Laboratory Animals.
Blood was collected from the femoral vein of rats using a blood collection needle and a heparin-treated capillary. Firstly, eight tubes of blood from the same rat, 75 μL in each tube, were added to 100 μL of 250 μM paraxon to inhibit the effect of endogenous metabolizing enzymes on BZE, and frozen at −80° C. After thawing, 19.7 μL of mixed solution containing 0, 4, 10, 20, 40, 60, 100 and 200 μM BA and BE standards, then subjected to vortex for 20 seconds, and then added with 150 μL of acetonitrile and subjected to vortex for 1 minutes, then added with 50 μL of 10% HClO4 and subjected to vortex for 1 minutes, centrifuged at 17,000 rcf for 15 minutes, and then centrifuged again after the supernatant was transferred. 250 μL of supernatant were taken out for HPLC analysis. The sample volume was 100 μL, and the HPLC experimental conditions were the same as those in Embodiment 3. The concentrations of BZE and BA in the final standard samples were 0, 0.2, 0.5, 1, 2, 3, 5 and 10 μM respectively.
There were 5 rats in each group. Firstly, 0.2 or 1 mg/kg of high-active CocE mutant or normal saline was injected into the tail vein of rats, and 2 mg/kg BZE was injected into the tail vein within 1 minute. After BZE injection, 75 μL of blood samples were taken at the 0th, 2nd, 5th, 10th, 30th, 60th, 90th and 120th minutes respectively, and 100 μL of 250 μM paraxon were added in each sample, and then frozen at −80° C. After thawing, the samples were subjected to vortex for 20 seconds, then added with 150 μL of acetonitrile and subjected to vortex for 1 minute, then added with 50 μL of 10% HClO4 and subjected to vortex for 1 minute, centrifuged at 17,000 g for 15 minutes, and then centrifuged again after the supernatant was transferred. 250 μL of supernatant were taken out for HPLC analysis. The sample volume was 100 μL. The BA and BZE concentrations in the blood of rats in each group at different time points were calculated according to the blood sample standard curve of the standards, so as to obtain the metabolism of BZE with or without the high-activity CocE mutant.
On to B1, for which the “BZE metabolism in rats (in words)” value is given as “accelerating BZE metabolism”.

Take B2: the “BZE metabolism in rats (in words)” value is “accelerating BZE metabolism”.

Staying with this data set, now noted: rats, 2 mg/kg BZE i.v. without mutant, second minute.
`CN1[C@H]2CC[C@@H]1[C@@H](C(=O)O)[C@@H](OC(=O)c1ccccc1)C2` [BZE, benzoylecgonine, reference compound]: the “BA concentration in the blood” value is “less than 0.5 μM” and the “BZA concentration in the blood” value amounted to 15.8 µM.

Another data set is described as follows: Enzyme activity analysis: in vitro catalytic reaction of CocE enzymes to substrate BZE (HPLC, Michaelis-Menten). It is filed as biochemical.
Conditions: not given
From the text:
Firstly, an experimental method for detecting a substrate BZE and a product benzoic acid BA by HPLC was established. Both BZE and BA had strong ultraviolet absorption at 230 nm. In HPLC analysis, acetonitrile and 0.1% formic acid were used as mobile phases to separate BZE and BA by C18 liquid chromatography column. The absorption of BZE and BA at wavelength 230 nm was detected by an ultraviolet detector, and linear standard curves of BZE and BA were obtained. The activity of BZE reaction catalyzed by CocE was determined, and the reaction temperature was 25° C., with three repetitions in each group. An enzymatic reaction was started by 50 μL of substrate BZE solution with 50 μL of enzyme solution (diluted with 0.1 M phosphate buffer (pH 7.4)).
50 μL of 10% perchloric acid was added to stop the reaction, and then, 50 μL of acetonitrile was added, and the mixture was centrifuged at 12,000 rpm for 5 minutes. Then, the supernatant was diluted to an appropriate multiple and injected into […]. The peak time, peak areas and curves of BZE and BA were compared, and the residual BZE concentration and the BA concentration in the reaction sample were calculated. The kcat and KM of each mutant could be obtained by calculating the reaction rates of BA catalyzed by enzyme at different substrate concentrations, drawing a kinetic curve of the enzyme reaction with GraphPad Prism 8, and performing Michaelis-Menten kinetic analysis.
As to B3, the “catalytic efficiency on benzoylecgonine compared with the wildtype enzyme (in words)” value is “greatly improved”.

Still in this data set, the particulars now being: substrate BZE.
For the molecule B4, the “RCE, ratio of catalytic efficiency of the mutant enzyme to BZE and that of the wildtype enzyme” value (“RCE, ratio” for short) is 1.0.

On to B5, for which the “RCE, ratio” value is 357.4.

Consider B6, for which the “RCE, ratio” value came to 132.5.

For B7, the “RCE, ratio” value worked out at 2.6.

In the case of B8, the “RCE, ratio” value worked out at 1.6.

On to B3, for which the “RCE, ratio” value is reported as 61.2.

As to B1, the “RCE, ratio” value came out at 137.6.

Regarding B2, the “RCE, ratio” value worked out at 536.5.

Turning to B9, the “RCE, ratio” value is given as 110.8.

For the molecule B10, the “RCE, ratio” value turned out to be 211.8.

Regarding B11, the “RCE, ratio” value was determined as 210.3.

The data set is the same for the next values; noted with them: substrate BZE, 25° C., 0.1 M phosphate buffer pH 7.4.
For B4, the Km came out at 5150 µM and the kcat is 5.02 s⁻¹.

Turning to B5, the Km worked out at 43.6 µM and the kcat was 15.18 s⁻¹.

Take B6: the Km worked out at 95.6 µM and the kcat was 12.34 s⁻¹.

On to B7, for which the Km was found to be 3710 µM and the kcat was 9.278 s⁻¹.

Consider B8, for which the Michaelis-Menten constant (Km) came out at 4360 µM and the kcat is 6.978 s⁻¹.

For B3, the Km was 89.6 µM and the kcat came out at 5.34 s⁻¹.

Turning to B1, the Km came out at 86.2 µM and the kcat was determined as 11.55 s⁻¹.

As to B2, the Km is 27.8 µM and the kcat is 14.6 s⁻¹.

Regarding B9, the Michaelis-Menten constant (Km) stood at 65.6 µM and the kcat was found to be 7.087 s⁻¹.

As for B10, the Km was 59.3 µM and the turnover number (kcat) turned out to be 12.23 s⁻¹.

Take B11: the Km is 46.3 µM and the kcat worked out at 9.477 s⁻¹.

Test in another data set: not given
As to conditions: in vivo; cited from earlier work.
For the molecule `COC(=O)[C@H]1[C@@H](OC(=O)c2ccccc2)C[C@@H]2CC[C@H]1N2C` [cocaine], the “share of cocaine bio-converted by BChE and CE-2 to ecgonine methyl ester (EME)” value is recorded as “about 40%”; the “share of cocaine hydrolyzed by CE-1 in liver to benzoyllecgonine (BZE)” value was 45%.

The values above are taken from patent US12180519B2, “Cocaine esterase mutant and use thereof” (Hangzhou Normal University, priority 2021, dated 2024).
